doi:10.1101/2025.06.10.658938 (bioRxiv, 2025)
Values belong to the binder of their own block, whether it stands above or below them.

What was measured:
Experiment in all cases: split reporter
[1] = biological target: sphingosine 1-phosphate receptor 1 (S1PR1), smBit-tagged Target construct (UniProt P21453 1-347)
[2] = biological target: T1, calcitonin-like receptor (CLR), smBit-tagged Target construct (UniProt Q16602 23-461)
[3] = biological target: T1, calcitonin-like receptor (CLR), …; remark: listed apart in the source

T1 sequence (Q16602 23-461): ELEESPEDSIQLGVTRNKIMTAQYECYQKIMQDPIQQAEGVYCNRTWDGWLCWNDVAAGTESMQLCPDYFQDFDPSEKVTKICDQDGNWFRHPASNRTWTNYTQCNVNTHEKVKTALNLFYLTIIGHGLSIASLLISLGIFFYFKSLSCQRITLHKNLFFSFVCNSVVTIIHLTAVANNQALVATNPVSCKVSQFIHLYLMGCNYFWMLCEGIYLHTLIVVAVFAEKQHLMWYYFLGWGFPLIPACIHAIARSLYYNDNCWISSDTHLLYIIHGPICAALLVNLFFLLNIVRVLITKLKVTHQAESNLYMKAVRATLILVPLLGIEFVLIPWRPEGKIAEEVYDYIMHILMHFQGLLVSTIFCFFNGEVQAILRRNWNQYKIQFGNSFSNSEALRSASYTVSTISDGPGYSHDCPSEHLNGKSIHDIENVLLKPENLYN
Chain of sphingosine 1-phosphate receptor 1 (S1PR1), smBit-tagged Target construct (P21453 1-347): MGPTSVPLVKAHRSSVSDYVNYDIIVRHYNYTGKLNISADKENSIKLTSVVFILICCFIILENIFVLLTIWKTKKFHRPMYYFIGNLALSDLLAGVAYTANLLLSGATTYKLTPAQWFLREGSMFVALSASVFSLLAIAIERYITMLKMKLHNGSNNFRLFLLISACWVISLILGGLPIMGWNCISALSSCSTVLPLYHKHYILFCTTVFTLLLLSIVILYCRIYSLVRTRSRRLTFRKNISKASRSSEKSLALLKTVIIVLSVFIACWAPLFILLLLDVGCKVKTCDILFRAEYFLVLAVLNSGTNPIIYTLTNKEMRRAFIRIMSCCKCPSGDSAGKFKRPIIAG

fold change of expression-normalised NanoBit over CLR+CD8a (1 ng Binder DNA) [2]: 2.7 ± 0.2 fold
fold change of expression-normalised NanoBit over CLR+CD8a (5 ng Binder DNA) [2]: 2.9 ± 0.1 fold
fold change of expression-normalised NanoBit over CLR+CD8a (10 ng Binder DNA) [2]: 2.7 ± 0.1 fold
fold change of expression-normalised NanoBit over CLR+CD8a (20 ng Binder DNA) [2]: 2.1 ± 0.1 fold
fold change of NanoBit luminescence over CLR+CD8a (1 ng Binder DNA) [3]: 13 ± 1.45 fold
fold change of NanoBit luminescence over CLR+CD8a (20 ng Binder DNA) [3]: 2.16 ± 0.04 fold
B2: receptor activity-modifying protein 1 (RAMP1), LgBit-tagged Binder construct (natural protein)
chain: CQEANYGALLRELCLTQFQVDMEAVGETLWCDWGRTIRSYRELADCTWHMAEKLGCFWPNAEVDRFFLAVHGRYFRSCPISGRAVRDPPGSILYPFIVVPITVTLLVTALVVWQSKRTEGIV

fold reduction of expression-normalised NanoBit relative to WT CLR-RAMP1 [2]: 2 fold
Binder: LYPFIVVPITVTLLVTALVVWQSKRTEGIV (domain or fragment, UniProt O60894 119-148, looked up) [InnTag5-RAMP1-TM, LgBit-tagged Binder chimera]

Further lines, the binder ahead of its results:

B1: CD69 V48F, V49F double mutant, LgBit-tagged Binder construct (natural protein)
chain: SENCFVAENSSLHPESGQENDATSPHFSTRHEGSFQVPVLCAVMNFFFITILIIALIALSVGQYNCPGQYTFSMPSDSHVSSCSEDWVGYQRKCYFISTVKRSWTSAQNACSEHGATLAVIDSEKDMNFLKRYAGREEHWVGLKKEPGHPWKWSNGKEFNNWFNVTGSDKCVFLKNTEVSSMECEKNLYWICNKPYK
percent decrease of expression-normalised NanoBit relative to WT CD69 [1]: 30%

Binder: LYPFIVVPITVTLLVTALVVWQSKRTEGIV (domain or fragment, UniProt O60894 119-148, looked up) [HALO-RAMP1-TM, LgBit-tagged Binder chimera]
fold reduction of expression-normalised NanoBit relative to WT CLR-RAMP1 [2]: 2 fold
